Measurements as given in patent publication US20230381229A1 (ALPINE IMMUNE SCIENCES, INC., published 2023).
Changes are numbered by the printed parent chain. Names and notes keep the numbering of the source.

B1: variant CD155 IgV-Fc D8G, V9I, V11A, P18T, T26M, S52P, L79P, F91S, G92A, T107L, V115A (Fc fusion)
chain: WPPPGTGGIVAQAPTQVTGFLGDSVMLPCYLQVPNMEVTHVSQLTWARHGEPGSMAVFHQTQGPSYSESKRLEFVAARPGAELRNASLRMSALRVEDEGNYTCLFVLFPQGSRSADIWLRVLGSGGGGSEPKSSDKTHTCPPCPAPEAEGAPSVFLFPPKPKDTLMISRTPEVTCVVVDVSHEDPEVKFNWYVDGVEVHNAKTKPREEQYNSTYRVVSVLTVLHQDWLNGKEYKCKVSNKALPAPIEKTISKAKGQPREPQVYTLPPSRDELTKNQVSLTCLVKGFYPSDIAVEWESNGQPENNYKTTPPVLDSDGSFFLYSKLTVDKSRWQQGNVFSCSVMHEALHNHYTQKSLSLSPGK
B2: variant CD155 IgV-Fc P18F, E51V, S54G, Q60R, L79Q, E82G, S87T, M90I, F91S, G92R, T107M (Fc fusion)
chain: WPPPGTGDVVVQAPTQVFGFLGDSVTLPCYLQVPNMEVTHVSQLTWARHGVSGGMAVFHRTQGPSYSESKRLEFVAARQGAGLRNATLRISRLRVEDEGNYTCLFVMFPQGSRSVDIWLRVLGSGGGGSEPKSSDKTHTCPPCPAPEAEGAPSVFLFPPKPKDTLMISRTPEVTCVVVDVSHEDPEVKFNWYVDGVEVHNAKTKPREEQYNSTYRVVSVLTVLHQDWLNGKEYKCKVSNKALPAPIEKTISKAKGQPREPQVYTLPPSRDELTKNQVSLTCLVKGFYPSDIAVEWESNGQPENNYKTTPPVLDSDGSFFLYSKLTVDKSRWQQGNVFSCSVMHEALHNHYTQKSLSLSPGK
B3: variant CD155 IgV-Fc P18S, Q32R, Q62K, R78G, L79P, F91S, T107A, R113W (Fc fusion)
chain: WPPPGTGDVVVQAPTQVSGFLGDSVTLPCYLRVPNMEVTHVSQLTWARHGESGSMAVFHQTKGPSYSESKRLEFVAAGPGAELRNASLRMSGLRVEDEGNYTCLFVAFPQGSWSVDIWLRVLGSGGGGSEPKSSDKTHTCPPCPAPEAEGAPSVFLFPPKPKDTLMISRTPEVTCVVVDVSHEDPEVKFNWYVDGVEVHNAKTKPREEQYNSTYRVVSVLTVLHQDWLNGKEYKCKVSNKALPAPIEKTISKAKGQPREPQVYTLPPSRDELTKNQVSLTCLVKGFYPSDIAVEWESNGQPENNYKTTPPVLDSDGSFFLYSKLTVDKSRWQQGNVFSCSVMHEALHNHYTQKSLSLSPGK
B4: variant CD155 IgV-Fc V9I, P18S, S24P, H49Q, F58Y, Q60R, Q62K, L79P, F91S, T107M (Fc fusion)
chain: B3 chain with V9I, S24P, R32Q, H49Q, F58Y, Q60R, G78R, A107M, W113R
B5: variant CD155 IgV-Fc T15I, P18S, V33M, N35F, T39S, M55L, R78S, L79P, F91S, T107M (Fc fusion)
chain: B3 chain with T15I, R32Q, V33M, N35F, T39S, M55L, K62Q, G78S, A107M, W113R
B6: variant CD155 IgV-Fc P18S, Q62K, K70E, L79P, F91S, G92E, R113W (Fc fusion)
chain: B3 chain with R32Q, K70E, G78R, G92E, A107T
B7: variant CD155 IgV-Fc V9L, P18F, T45A, S65A, S67V, R78K, L79V, F91S, T107M, S114T (Fc fusion)
chain: WPPPGTGDLVVQAPTQVFGFLGDSVTLPCYLQVPNMEVTHVSQLAWARHGESGSMAVFHQTQGPAYVESKRLEFVAAKVGAELRNASLRMSGLRVEDEGNYTCLFVMFPQGSRTVDIWLRVLGSGGGGSEPKSSDKTHTCPPCPAPEAEGAPSVFLFPPKPKDTLMISRTPEVTCVVVDVSHEDPEVKFNWYVDGVEVHNAKTKPREEQYNSTYRVVSVLTVLHQDWLNGKEYKCKVSNKALPAPIEKTISKAKGQPREPQVYTLPPSRDELTKNQVSLTCLVKGFYPSDIAVEWESNGQPENNYKTTPPVLDSDGSFFLYSKLTVDKSRWQQGNVFSCSVMHEALHNHYTQKSLSLSPGK
B8: variant CD155 IgV-Fc P18S, L21M, Y30F, N35D, R84W, F91S, T107M, D116G (Fc fusion)
chain: WPPPGTGDVVVQAPTQVSGFMGDSVTLPCFLQVPDMEVTHVSQLTWARHGESGSMAVFHQTQGPSYSESKRLEFVAARLGAELWNASLRMSGLRVEDEGNYTCLFVMFPQGSRSVGIWLRVLGSGGGGSEPKSSDKTHTCPPCPAPEAEGAPSVFLFPPKPKDTLMISRTPEVTCVVVDVSHEDPEVKFNWYVDGVEVHNAKTKPREEQYNSTYRVVSVLTVLHQDWLNGKEYKCKVSNKALPAPIEKTISKAKGQPREPQVYTLPPSRDELTKNQVSLTCLVKGFYPSDIAVEWESNGQPENNYKTTPPVLDSDGSFFLYSKLTVDKSRWQQGNVFSCSVMHEALHNHYTQKSLSLSPGK
B9: variant CD155 IgV-Fc P18T, G19D, M36T, S54N, L79P, L83Q, F91S, T107M, F108Y (Fc fusion)
chain: WPPPGTGDVVVQAPTQVTDFLGDSVTLPCYLQVPNTEVTHVSQLTWARHGESGNMAVFHQTQGPSYSESKRLEFVAARPGAEQRNASLRMSGLRVEDEGNYTCLFVMYPQGSRSVDIWLRVLGSGGGGSEPKSSDKTHTCPPCPAPEAEGAPSVFLFPPKPKDTLMISRTPEVTCVVVDVSHEDPEVKFNWYVDGVEVHNAKTKPREEQYNSTYRVVSVLTVLHQDWLNGKEYKCKVSNKALPAPIEKTISKAKGQPREPQVYTLPPSRDELTKNQVSLTCLVKGFYPSDIAVEWESNGQPENNYKTTPPVLDSDGSFFLYSKLTVDKSRWQQGNVFSCSVMHEALHNHYTQKSLSLSPGK
B10: variant CD155 IgV-Fc Q12H, P18T, L21S, G22S, V57A, Q62R, L79P, F91S, T107M (Fc fusion)
chain: B3 chain with Q12H, S18T, L21S, G22S, R32Q, V57A, K62R, G78R, A107M, W113R
B11: variant CD155 IgV-Fc P18S, P34S, E51V, L79P, F91S, G111R (Fc fusion)
chain: B3 chain with R32Q, P34S, E51V, K62Q, G78R, A107T, G111R, W113R
B12: variant CD155 IgV-Fc P18T, M55L, T61R, L79P, F91S, V106I, T107M (Fc fusion)
chain: B9 chain with D19G, T36M, N54S, M55L, T61R, Q83L, V106I, Y108F
B13: variant CD155 IgV-Fc P18T, D23G, Q60R, S67L, L79P, F91S, T107M, V115A (Fc fusion)
chain: B9 chain with D19G, D23G, T36M, N54S, Q60R, S67L, Q83L, Y108F, V115A
B14: variant CD155 IgV-Fc V9L, P18L, M55V, S69L, L79P, A81E, F91S, T107M (Fc fusion)
chain: B7 chain with F18L, A45T, M55V, A65S, V67S, S69L, K78R, V79P, A81E, T114S
B15: variant CD155 IgV-Fc P18S, H59N, V75A, L79P, A81T, F91S, L104M, T107M (Fc fusion)
chain: B3 chain with R32Q, H59N, K62Q, V75A, G78R, A81T, L104M, A107M, W113R
B16: variant CD155 IgV-Fc P18T, T39S, S52P, S54R, L79P, F91S, T107M (Fc fusion)
chain: B9 chain with D19G, T36M, T39S, S52P, N54R, Q83L, Y108F
B17: variant CD155 IgV-Fc P18S, W46R, E68D, L79P, F91S, T107M, R113G (Fc fusion)
chain: B3 chain with R32Q, W46R, K62Q, E68D, G78R, A107M, W113G
B18: variant CD155 IgV-Fc V9I, P18F, A47E, G50S, E68G, L79P, F91S, T107M (Fc fusion)
chain: B7 chain with L9I, A45T, A47E, G50S, A65S, V67S, E68G, K78R, V79P, T114S
B19: variant CD155 IgV-Fc V10F, T15S, P18L, R48Q, L79P, F91S, T107M, V115M (Fc fusion)
chain: B3 chain with V10F, T15S, S18L, R32Q, R48Q, K62Q, G78R, A107M, W113R, V115M
B20: variant CD155 IgV-Fc P18S, D23G, C29R, N35D, E37G, M55I, Q62K, S65A, S67G, R78G, L79P, F91S, L104M, T107M, Q110R (Fc fusion)
chain: WPPPGTGDVVVQAPTQVSGFLGGSVTLPRYLQVPDMGVTHVSQLTWARHGESGSIAVFHQTKGPAYGESKRLEFVAAGPGAELRNASLRMSGLRVEDEGNYTCMFVMFPRGSRSVDIWLRVLGSGGGGSEPKSSDKTHTCPPCPAPEAEGAPSVFLFPPKPKDTLMISRTPEVTCVVVDVSHEDPEVKFNWYVDGVEVHNAKTKPREEQYNSTYRVVSVLTVLHQDWLNGKEYKCKVSNKALPAPIEKTISKAKGQPREPQVYTLPPSRDELTKNQVSLTCLVKGFYPSDIAVEWESNGQPENNYKTTPPVLDSDGSFFLYSKLTVDKSRWQQGNVFSCSVMHEALHNHYTQKSLSLSPGK
B21: variant CD155 IgV-Fc P18T, W46C, H49R, S65A, S67V, A76T, L79P, S87T, L104M (Fc fusion)
chain: WPPPGTGDVVVQAPTQVTGFLGDSVTLPCYLQVPNMEVTHVSQLTCARRGESGSMAVFHQTQGPAYVESKRLEFVTARPGAELRNATLRMFGLRVEDEGNYTCMFVTFPQGSRSVDIWLRVLGSGGGGSEPKSSDKTHTCPPCPAPEAEGAPSVFLFPPKPKDTLMISRTPEVTCVVVDVSHEDPEVKFNWYVDGVEVHNAKTKPREEQYNSTYRVVSVLTVLHQDWLNGKEYKCKVSNKALPAPIEKTISKAKGQPREPQVYTLPPSRDELTKNQVSLTCLVKGFYPSDIAVEWESNGQPENNYKTTPPVLDSDGSFFLYSKLTVDKSRWQQGNVFSCSVMHEALHNHYTQKSLSLSPGK

Target: T1, TIGIT (human)
T1 chain: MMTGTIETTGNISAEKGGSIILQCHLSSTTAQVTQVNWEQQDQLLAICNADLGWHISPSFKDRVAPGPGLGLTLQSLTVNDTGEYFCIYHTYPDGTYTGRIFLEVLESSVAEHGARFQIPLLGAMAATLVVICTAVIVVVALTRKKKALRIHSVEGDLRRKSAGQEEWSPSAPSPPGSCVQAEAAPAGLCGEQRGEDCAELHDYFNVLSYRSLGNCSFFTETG
Assay: cell-based or functional assay

| Binder | IL-2 luciferase reporter, Normalized Fold Change from CD155-ECD |
| --- | --- |
| B1 | 8.4 fold |
| B2 | 5.8 fold |
| B3 | -2.2 fold |
| B4 | 1.1 fold |
| B5 | 1.3 fold |
| B6 | 2 fold |
| B7 | 6 fold |
| B8 | -2.2 fold |
| B9 | 0.3 fold |
| B10 | -4.1 fold |
| B11 | 2.1 fold |
| B12 | 4.5 fold |
| B13 | 8.6 fold |
| B14 | 3.1 fold |
| B15 | 3.5 fold |
| B16 | -0.1 fold |
| B17 | 0.9 fold |
| B18 | 3 fold |
| B19 | -3.4 fold |
| B20 | 1.2 fold |
| B21 | -3.4 fold |
